Results taken from paper PMC8617759, “Characterization of a Novel L-Asparaginase from Mycobacterium gordonae with Acrylamide Mitigation Potential” (Foods, 2021).

Tested on: NC(=O)C[C@H](N)C(=O)O
Assay: Nessler ammonia assay, OD436; Lineweaver-Burk
Assay type: biochemical, Mycobacterium gordonae
Settings: 50 mM PBS pH 8.0, 37 °C, 2 min, 1-20 mM substrate

Substance: GmASNase (Mycobacterium gordonae L-asparaginase) (Mycobacterium gordonae)
- Km: 6.025 mM
- kcat: 11,864.71 min^-1
